This note sets out measurements from the supplement of paper PMC5998384.

Data set [1] relates to HeLa Kyoto. Put plainly: thermal stability score vs G1/S (z-score of summed log2 fold changes over temperatures); higher = more thermally stable than in G1/S.
The test system of data set [2] is HeLa Kyoto. Put plainly: solubility in G1/S (NP-40 vs SDS abundance) (log2 ratio); higher = more soluble. The note with it: cell cycle stage: G1/S.
Data set [3] has as its system HeLa Kyoto. The data set is described as follows: solubility change mitosis vs G1/S (difference of NP-40 vs SDS log2 ratios) (log2 ratio difference); higher = more soluble in mitosis.
The test system of data set [4] is HeLa Kyoto. The data set is described as follows: melting temperature (median over replicates), in situ; higher = more thermally stable.
Where [5] appears, read: cell cycle stage: early G1 (4.5 h after nocodazole release).
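Wherever melting temperature (median over replicates), in situ is given: HeLa Kyoto cells synchronized by double thymidine or nocodazole block, proteins quantified by TMT10plex mass spectrometry, three independent biological replicates.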
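Wherever solubility change mitosis vs G1/S (difference of NP-40 vs SDS log2 ratios) is given: synchronized HeLa Kyoto cells (double thymidine block for G1/S, nocodazole release for mitosis), protein amounts in NP-40 versus SDS lysates quantified by mass spectrometry, three biological replicates.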
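Wherever solubility in G1/S (NP-40 vs SDS abundance) is given: HeLa Kyoto cells arrested at G1/S by double thymidine block, proteins quantified by TMT10plex mass spectrometry in mild NP-40 versus SDS extracts, three biological replicates.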
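Wherever thermal stability score vs G1/S (z-score of summed log2 fold changes over temperatures) is given: synchronized HeLa Kyoto cells, proteins quantified by TMT10plex mass spectrometry, three biological replicates, mitosis taken 0.5 h after nocodazole release, G1/S directly after double thymidine block.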

On to “MNKLYIGNLSENAAPSDLESIFKDAKIPVSGPFLVKTGYAFVDCPDESWALKAIEALSGKIELHGKPIEVEHSVPKRQRIRKLQIRNIPPHLQWEVLDSLLVQYGVVESCEQVNTDSETAVVNVTYSSKDQARQALDKLNGFQLENFTLKVAYIPDEMAAQQNPLQQPRGRRGLGQRGSSRQGSPGSVSKQKPCDLPLRLLVPTQFVGAIIGKEGATIRNITKQTQSKIDVHRKENAGAAEKSITILSTPEGTSAACKSILEIMHKEAQDIKFTEEIPLKILAHNNFVGRLIGKEGRNLKKIEQDTDTKITISPLQELTLYNPERTITVKGNVETCAKAEEEIMKKIRESYENDIASMNLQAHLIPGLNLNALGLFPPTSGMPPPTSGPPSAMTPPYPQFEQSETETVHLFIPALSVGAIIGKQGQHIKQLSRFAGASIKIAPAEAPDAKVRMVIITGPPEAQFKAQGRIYGKIKEENFVSPKEEVKLEAHIRVPSFAAGRVIGKGGKTVNELQNLSSAEVVVPRDQTPDENDQVVVKITGHFYACQVAQRKIQEILTQVKQHQQQKALQSGPPQSRRK [IGF2BP3]”, for which the thermal stability score stood at 0.549 in the data set on HeLa Kyoto [1] (setting [5]) and 0.841 in the data set on HeLa Kyoto [1] (cell cycle stage: mitosis). For the same sequence, the “solubility in G1/S (log2)” value with HeLa Kyoto [2] stood at 0.241. In addition, the “solubility change mitosis (log2)” value in the data set on HeLa Kyoto [3] came to 0.0855. Further, the results for the melting temperature with HeLa Kyoto [4] (cell cycle stage: G1/S) and in the data set with HeLa Kyoto [4] (cell cycle stage: mitosis) were 46.9 °C and 47.6 °C, respectively.

Consider “MNKPITPSTYVRCLNVGLIRKLSDFIDPQEGWKKLAVAIKKPSGDDRYNQFHIRRFEALLQTGKSPTSELLFDWGTTNCTVGDLVDLLIQNEFFAPASLLLPDAVPKTANTLPSKEAITVQQKQMPFCDKDRTLMTPVQNLEQSYMPPDSSSPENKSLEVSDTRFHSFSFYELKNVTNNFDERPISVGGNKMGEGGFGVVYKGYVNNTTVAVKKLAAMVDITTEELKQQFDQEIKVMAKCQHENLVELLGFSSDGDDLCLVYVYMPNGSLLDRLSCLDGTPPLSWHMRCKIAQGAANGINFLHENHHIHRDIKSANILLDEAFTAKISDFGLARASEKFAQTVMTSRIVGTTAYMAPEALRGEITPKSDIYSFGVVLLEIITGLPAVDEHREPQLLLDIKEEIEDEEKTIEDYIDKKMNDADSTSVEAMYSVASQCLHEKKNKRPDIKKVQQLLQEMTAS [IRAK4]”, for which the values for the thermal stability score in the data set on HeLa Kyoto [1] (setting [5]) and with HeLa Kyoto [1] (cell cycle stage: mitosis) were 0.383 and 1.05, respectively. Moreover, the “solubility in G1/S (log2)” value in the data set with HeLa Kyoto [2] turned out to be 0.372. The “solubility change mitosis (log2)” value with HeLa Kyoto [3] is -0.193. Further, the melting temperature in the data set with HeLa Kyoto [4] (cell cycle stage: G1/S) turned out to be 50.6 °C; in the data set with HeLa Kyoto [4] (cell cycle stage: mitosis) it was 49.9 °C.

As to “MNLEKLSKPELLTLFSILEGELEARDLVIEALKAQHRDTFIEERYGKYNISDPLMALQRDFETLKEKNDGEKQPVCTNPLSILKVVMKQCKNMQERMLSQLAAAESRHRKVILDLEEERQRHAQDTAEGDDVTYMLEKERERLTQQLEFEKSQVKKFEKEQKKLSSQLEEERSRHKQLSSMLVLECKKATNKAAEEGQKAGELSLKLEKEKSRVSKLEEELAAERKRGLQTEAQVEKQLSEFDIEREQLRAKLNREENRTKTLKEEMESLKKIVKDLEASHQHSSPNEQLKKPVTVSKGTATEPLMLMSVFCQTESFPAERTHGSNIAKMTNTGLPGPATPAYSYAKTNGHCDPEIQTTRELTAGNNVENQVPPREKSVALAQEKPVENGGCPVGIETPVPMPSPLSSSGSSLSPSSTASSSLTSSPCSSPVLTKRLLGSSASSPGYQSSYQVGINQRFHAARHKFQSQADQDQQASGLQSPPSRDLSPTLIDNSAAKQLARNTVTQVLSRFTSQQGPIKPVSPNSSPFGTDYRNLANTANPRGDTSHSPTPGKVSSPLSPLSPGIKSPTIPRAERGNPPPIPPKKPGLTPSPSATTPLTKTHSQAASLTTAEDLASSCSSNTVVANGKDVELLLPTSS [CTTNBP2NL]”, the figures for the thermal stability score in the data set with HeLa Kyoto [1] (setting [5]) and in the data set on HeLa Kyoto [1] (cell cycle stage: mitosis) were -2.02 and -1.85, respectively. Moreover, in the data set on HeLa Kyoto [2], the “solubility in G1/S (log2)” value stood at 0.435. In the data set on HeLa Kyoto [3], the “solubility change mitosis (log2)” value is -0.363. The results for the melting temperature in the data set with HeLa Kyoto [4] (cell cycle stage: G1/S) and with HeLa Kyoto [4] (cell cycle stage: mitosis) were 49.9 °C and 50.3 °C, respectively.

As to “MNPRQGYSLSGYYTHPFQGYEHRQLRYQQPGPGSSPSSFLLKQIEFLKGQLPEAPVIGKQTPSLPPSLPGLRPRFPVLLASSTRGRQVDIRGVPRGVHLRSQGLQRGFQHPSPRGRSLPQRGVDCLSSHFQELSIYQDQEQRILKFLEELGEGKATTAHDLSGKLGTPKKEINRVLYSLAKKGKLQKEAGTPPLWKIAVSTQAWNQHSGVVRPDGHSQGAPNSDPSLEPEDRNSTSVSEDLLEPFIAVSAQAWNQHSGVVRPDSHSQGSPNSDPGLEPEDSNSTSALEDPLEFLDMAEIKEKICDYLFNVSDSSALNLAKNIGLTKARDINAVLIDMERQGDVYRQGTTPPIWHLTDKKRERMQIKRNTNSVPETAPAAIPETKRNAEFLTCNIPTSNASNNMVTTEKVENGQEPVIKLENRQEARPEPARLKPPVHYNGPSKAGYVDFENGQWATDDIPDDLNSIRAAPGEFRAIMEMPSFYSHGLPRCSPYKKLTECQLKNPISGLLEYAQFASQTCEFNMIEQSGPPHEPRFKFQVVINGREFPPAEAGSKKVAKQDAAMKAMTILLEEAKAKDSGKSEESSHYSTEKESEKTAESQTPTPSATSFFSGKSPVTTLLECMHKLGNSCEFRLLSKEGPAHEPKFQYCVAVGAQTFPSVSAPSKKVAKQMAAEEAMKALHGEATNSMASDNQPEGMISESLDNLESMMPNKVRKIGELVRYLNTNPVGGLLEYARSHGFAAEFKLVDQSGPPHEPKFVYQAKVGGRWFPAVCAHSKKQGKQEAADAALRVLIGENEKAERMGFTEVTPVTGASLRRTMLLLSRSPEAQPKTLPLTGSTFHDQIAMLSHRCFNTLTNSFQPSLLGRKILAAIIMKKDSEDMGVVVSLGTGNRCVKGDSLSLKGETVNDCHAEIISRRGFIRFLYSELMKYNSQTAKDSIFEPAKGGEKLQIKKTVSFHLYISTAPCGDGALFDKSCSDRAMESTESRHYPVFENPKQGKLRTKVENGEGTIPVESSDIVPTWDGIRLGERLRTMSCSDKILRWNVLGLQGALLTHFLQPIYLKSVTLGYLFSQGHLTRAICCRVTRDGSAFEDGLRHPFIVNHPKVGRVSIYDSKRQSGKTKETSVNWCLADGYDLEILDGTRGTVDGPRNELSRVSKKNIFLLFKKLCSFRYRRDLLRLSYGEAKKAARDYETAKNYFKKGLKDMGYGNWISKPQEEKNFYLCPV [ADAR]”, the thermal stability score in the data set on HeLa Kyoto [1] (setting [5]) was 2.76; with HeLa Kyoto [1] (cell cycle stage: mitosis), 5.55. For the same sequence, the “solubility in G1/S (log2)” value with HeLa Kyoto [2] was -0.466. Moreover, the “solubility change mitosis (log2)” value in the data set on HeLa Kyoto [3] stood at 0.346. The melting temperature in the data set with HeLa Kyoto [4] (cell cycle stage: G1/S) was 47.9 °C; with HeLa Kyoto [4] (cell cycle stage: mitosis), 49 °C.

For “MNQEKLAKLQAQVRIGGKGTARRKKKVVHRTATADDKKLQSSLKKLAVNNIAGIEEVNMIKDDGTVIHFNNPKVQASLSANTFAITGHAEAKPITEMLPGILSQLGADSLTSLRKLAEQFPRQVLDSKAPKPEDIDEEDDDVPDLVENFDEASKNEAN [BTF3L4]”, the values for the thermal stability score with HeLa Kyoto [1] (setting [5]) and with HeLa Kyoto [1] (cell cycle stage: mitosis) were -0.215 and -1.23, respectively. For the same sequence, the “solubility in G1/S (log2)” value in the data set with HeLa Kyoto [2] is 0.114. In the data set on HeLa Kyoto [3], the “solubility change mitosis (log2)” value is 0.243. Also, the melting temperature came to 56.3 °C in the data set on HeLa Kyoto [4] (cell cycle stage: G1/S) and 54.6 °C with HeLa Kyoto [4] (cell cycle stage: mitosis).
